T1: IL-18 receptor (IL-18Rα/IL-18Rβ) overexpressed on HEK-Blue IL-18 cells (Homo sapiens (Human), UniProt Q13478 19-541; O95256 20-599)
T1 sequence 1: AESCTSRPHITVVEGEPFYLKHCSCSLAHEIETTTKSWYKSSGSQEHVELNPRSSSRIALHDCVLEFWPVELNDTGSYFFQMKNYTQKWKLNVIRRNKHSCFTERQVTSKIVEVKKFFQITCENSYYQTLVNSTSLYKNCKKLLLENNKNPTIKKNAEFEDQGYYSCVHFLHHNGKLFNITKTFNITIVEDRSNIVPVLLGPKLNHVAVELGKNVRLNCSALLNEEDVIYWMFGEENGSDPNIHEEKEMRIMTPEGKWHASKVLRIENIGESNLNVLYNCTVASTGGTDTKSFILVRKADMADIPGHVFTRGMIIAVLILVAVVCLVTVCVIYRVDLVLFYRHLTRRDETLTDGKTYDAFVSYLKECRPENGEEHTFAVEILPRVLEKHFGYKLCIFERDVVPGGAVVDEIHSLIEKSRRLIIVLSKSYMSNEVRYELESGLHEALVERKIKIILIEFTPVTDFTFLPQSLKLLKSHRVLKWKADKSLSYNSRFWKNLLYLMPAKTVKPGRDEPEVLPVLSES
T1 sequence 2: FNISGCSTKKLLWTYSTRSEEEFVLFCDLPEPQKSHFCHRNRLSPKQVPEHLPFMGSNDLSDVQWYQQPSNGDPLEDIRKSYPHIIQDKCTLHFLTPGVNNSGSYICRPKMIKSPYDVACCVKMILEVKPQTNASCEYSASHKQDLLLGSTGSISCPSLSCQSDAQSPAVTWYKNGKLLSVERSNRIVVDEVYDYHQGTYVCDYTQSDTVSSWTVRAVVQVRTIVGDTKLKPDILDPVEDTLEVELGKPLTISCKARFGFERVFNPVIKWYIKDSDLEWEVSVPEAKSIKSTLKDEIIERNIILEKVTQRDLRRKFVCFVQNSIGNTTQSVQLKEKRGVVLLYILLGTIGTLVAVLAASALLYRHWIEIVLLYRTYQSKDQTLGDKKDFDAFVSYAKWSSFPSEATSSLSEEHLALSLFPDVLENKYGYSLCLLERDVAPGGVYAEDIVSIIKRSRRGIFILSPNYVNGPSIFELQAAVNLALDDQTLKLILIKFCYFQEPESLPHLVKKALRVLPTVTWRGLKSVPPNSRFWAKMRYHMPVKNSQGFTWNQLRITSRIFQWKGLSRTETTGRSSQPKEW


target: T1, IL-18 receptor (IL-18Rα/IL-18Rβ) …; assay: cell-based or functional assay

HEK-Blue IL-18: Abs 405	HEK-Blue IL-18: Fold over Background	Binder
0.44 Abs	1.8 fold	DGL248 (bispecific antibody, V domains shown) V domain 1: QLQLVESGGGLVQPGGSLRLSCAASGFTLDYYAISWFRQVPGKEREGVSCISSNGGSTAYADSVKGRFTISRDNTKNTAYLQMNSLKPEDTAIYYCAASARTIQAMCQRSNFPTRYDYWGQGTQVTVSS V domain 2: QLQLVESGGGLVQAGGSLRLSCAASRSITFSHNVMGWYRQAPGKQRELVASIGSGGSTNYVDSVKGRATISRDNAKKTVYLQMNSLKPEDTAVYYCGVVVGVYRGSLGQGTQVTVSS
0.46 Abs	2 fold	DGL295 (bispecific antibody, V domains shown) V domain 1: QVQLQESGGGLVQPGGSARLSCVASGIIFNDYHMGWYRQAPGKQRDLVAGITAGGSTTYADSVKGRFTISRDNAKHTVYLQMNNLSPEDTAVYYCNTFYNAILDWGKGTLVTVSS V domain 2: QVQLVESGGDLVLPGGSLKLSCEASGSISSRNSMAWYRRAPGKQRELVAAISSISSGGRTDYADFVKGRFTIFRDTAKNMVYLQMNNLKPEDTAVYDCDDPIRVASLAYDDWGQGTQVTVSS
0.42 Abs	1.7 fold	DGL256 (bispecific antibody, V domains shown) V domain 1: QVQLVESGGGLVQPGGSLRLSCTASGSDLHHYAIGWFRQAPGKEREGVSCISTTGAGTNYADSVKGRFTISRDNAKNTVYLQMDSLKPEETAVYYCAADGPSAIAGCVRTVASMYRYWGQGAQVTVSS V domain 2: QVQLVESGGGLVQPGGSLRLSCAASRITFSIYDMGWYRQAPGKQRELVASITRRGSTNYADSTKGRFTISRDNGKNTMYLQGNSLKPEDTAVYYCNARDILGRDYWGQGTQVTVSS
0.3 Abs	1.2 fold	DGL254 (bispecific antibody, V domains shown) V domain 1: QVQLVESGGGLVQAGGSLRLSCAASGRTFSKHAMGWFRQAPGKEREFVAAIDWSGGSTYYADSVKGRFTISRDNAKNTVYLQMDSLKPEDTAVYYCAADSYTDYAQLWLPELESEYDYWGQGTQVTVSS V domain 2: QVQLVESGGGLVQAGGSLRLSCAASESIFSFVAMGWYRQAPGKQRELVVKISSGGSTNYADSVKGRFTISRDNAKNTVYLEMNSLKFEDTGVYYCNAVRPNGMDYWGKGTLVTVSS
0.29 Abs	1.2 fold	DGL253 (bispecific antibody, V domains shown) V domain 1: QVQLVESGGGLVQAGGSLRLSCAASGRTFSKHAMGWFRQAPGKEREFVAAIDWSGGSTYYADSVKGRFTISRDNAKNTVYLQMDSLKPEDTAVYYCAADSYTDYAQLWLPELESEYDYWGQGTQVTVSS V domain 2: QVQLQESGGGLVQAGGSPRLSCAVSGTAFNINNFMGWYRQAPGKQRELVATITGSSTTNYASSVKGRFTISRDSAKNTVYLQMNSLKPEDTAVYYCNLRRGGWYNYWGQGTQVTVSS

The remaining lines, values behind:

Binder	HEK-Blue IL-18: Abs 405	HEK-Blue IL-18: Fold over Background
DGL245 (bispecific antibody, V domains shown) V domain 1: EVQLVESGGGLVQPGGSLRLSCAASGFTLDYYTIGWFRQAPGKEREGVSCISSSGGSTNYADYVKGRFTISRDNAKNTVSLQMNSLKPEDTAVYYCAAESLIPLVETMCVMSVDDYDYWGQGTQVTVSS V domain 2: QLQLVESGGGLVQAGGSLRLSCAASRSITFSHNVMGWYRQAPGKQRELVASIGSGGSTNYVDSVKGRATISRDNAKKTVYLQMNSLKPEDTAVYYCGVVVGVYRGSLGQGTQVTVSS	2.1 Abs	8.6 fold
DGL247 (bispecific antibody, V domains shown) V domain 1: QVQLVESGGGSVQAGDSLRLSCAGSGRTFSSYVLGWFRQAPGKEREFVASISWSGDGTYYADSVKGRFTISRDNAENMVYLQMNSLKPEDTAVYYCAADGTTALAMSRLDASTYDFDYWGQGTQVTVSS V domain 2: QLQLVESGGGLVQAGGSLRLSCAASRSITFSHNVMGWYRQAPGKQRELVASIGSGGSTNYVDSVKGRATISRDNAKKTVYLQMNSLKPEDTAVYYCGVVVGVYRGSLGQGTQVTVSS	0.53 Abs	2.2 fold
DGL249 (bispecific antibody, V domains shown) V domain 1: QVQLVESGGGLVQPGGSLRLSCTASGSDLHHYAIGWFRQAPGKEREGVSCISTTGAGTNYADSVKGRFTISRDNAKNTVYLQMDSLKPEETAVYYCAADGPSAIAGCVRTVASMYRYWGQGAQVTVSS V domain 2: QLQLVESGGGLVQAGGSLRLSCAASRSITFSHNVMGWYRQAPGKQRELVASIGSGGSTNYVDSVKGRATISRDNAKKTVYLQMNSLKPEDTAVYYCGVVVGVYRGSLGQGTQVTVSS	0.12 Abs	0.5 fold
DGL293 (bispecific antibody, V domains shown) V domain 1: QVQLVESGGGLVQAGGSLRLSCAASGRTFSSYDMGWFRQAPGKEREFVAALRWSGGSTSYADSVKGRFTISRDNAKNTVYLHMNSLKPEDTAVYYCAATLETDSGTYWADYWGQGTQVTVSS V domain 2: QVQLVESGGDLVLPGGSLKLSCEASGSISSRNSMAWYRRAPGKQRELVAAISSISSGGRTDYADFVKGRFTIFRDTAKNMVYLQMNNLKPEDTAVYDCDDPIRVASLAYDDWGQGTQVTVSS	2.83 Abs	12.3 fold
DGL297 (bispecific antibody, V domains shown) V domain 1: QVQLVESGGGLVQAGGSLRLSCAASGRTFSSYTMGWFRQAPGKEREFVAAISWSAGRTYYADSVKGRFTISRDNAKNTVYLQMNSLKPEDTAVYFCAAEEAPDWAPIDCSGYGCLSLYDYWGQGTQVTVSS V domain 2: QVQLVESGGDLVLPGGSLKLSCEASGSISSRNSMAWYRRAPGKQRELVAAISSISSGGRTDYADFVKGRFTIFRDTAKNMVYLQMNNLKPEDTAVYDCDDPIRVASLAYDDWGQGTQVTVSS	0.63 Abs	2.7 fold
DGL294 (bispecific antibody, V domains shown) V domain 1: EVQLVESGGGLVQPGGSLRLSCAASGSIFSINAMGWYRQAPGKQREVVATSTGGGMTNYADSVKGRFTISRDNAKNTVYLQMNSLKPEDTAVYYCNADKDPFFPGDYWGQGTQVTVSS V domain 2: QVQLVESGGDLVLPGGSLKLSCEASGSISSRNSMAWYRRAPGKQRELVAAISSISSGGRTDYADFVKGRFTIFRDTAKNMVYLQMNNLKPEDTAVYDCDDPIRVASLAYDDWGQGTQVTVSS	0.86 Abs	3.7 fold
DGL250 (bispecific antibody, V domains shown) V domain 1: QVQLVESGGGLVQAGGSLRLSCAASGRTFSKHAMGWFRQAPGKEREFVAAIDWSGGSTYYADSVKGRFTISRDNAKNTVYLQMDSLKPEDTAVYYCAADSYTDYAQLWLPELESEYDYWGQGTQVTVSS V domain 2: QLQLVESGGGLVQPGGSLRLSCAAPGRIFGLNAMGWYRQAPGKQRELVASITTGGSTNYADSGKGRFTLSRSNAQNTVYRQMNSLQPEDTAVYYCNAKRGLNLNYWGQGTQVTVSS	0.49 Abs	2 fold
DGL252 (bispecific antibody, V domains shown) V domain 1: QVQLVESGGGLVQAGGSLRLSCAASGRTFSKHAMGWFRQAPGKEREFVAAIDWSGGSTYYADSVKGRFTISRDNAKNTVYLQMDSLKPEDTAVYYCAADSYTDYAQLWLPELESEYDYWGQGTQVTVSS V domain 2: QVQLQESGGGLVQAGGSLRLSCAASASIFSRYAIGWYRQAPGKQRDLVAAITSGGTTNYADSVKGRFTISTDNAKNTVYLQMNSLKPEDTAVYSCAAGDSRANYYWGQGTQVTVSS	0.32 Abs	1.3 fold
DGL251 (bispecific antibody, V domains shown) V domain 1: QVQLVESGGGLVQAGGSLRLSCAASGRTFSKHAMGWFRQAPGKEREFVAAIDWSGGSTYYADSVKGRFTISRDNAKNTVYLQMDSLKPEDTAVYYCAADSYTDYAQLWLPELESEYDYWGQGTQVTVSS V domain 2: EVQLVESGGGLVQTGGSLRLSCVASETITDTFRMGWYRQAPGQQRELVAAITHTSETTYGDSVTGRFTISGDTAKNMVHLQMNSLKPEDTGVYYCNIRAWRRPDYWGQGTQVTVSS	0.31 Abs	1.3 fold
DGL255 (bispecific antibody, V domains shown) V domain 1: QVQLVESGGGLVQAGGSLRLSCAASGRTFSKHAMGWFRQAPGKEREFVAAIDWSGGSTYYADSVKGRFTISRDNAKNTVYLQMDSLKPEDTAVYYCAADSYTDYAQLWLPELESEYDYWGQGTQVTVSS V domain 2: QVQLVESGGGLVQPGGSLRLSCAASRITFSIYDMGWYRQAPGKQRELVASITRRGSTNYADSTKGRFTISRDNGKNTMYLQGNSLKPEDTAVYYCNARDILGRDYWGQGTQVTVSS	0.32 Abs	1.3 fold
DGL296 (bispecific antibody, V domains shown) V domain 1: QVQLVESGGGLVQAGGSLRLSCAASGRTFSKHAMGWFRQAPGKEREFVAAIDWSGGSTYYADSVKGRFTISRDNAKNTVYLQMDSLKPEDTAVYYCAADSYTDYAQLWLPELESEYDYWGQGTQVTVSS V domain 2: QVQLVESGGDLVLPGGSLKLSCEASGSISSRNSMAWYRRAPGKQRELVAAISSISSGGRTDYADFVKGRFTIFRDTAKNMVYLQMNNLKPEDTAVYDCDDPIRVASLAYDDWGQGTQVTVSS	0.66 Abs	2.9 fold

— US20240209100A1 (DIAGONAL THERAPEUTICS, published 2024)
